Experimental data as given in patent US20140205597A1 (published 2014).

Legend:
[1] = molecular target: T1, purified interference factor(s) from serum of Donor A; test: Biacore, immobilized interference factor
T1 construct: text names Donors 8, 19 and 30

[2] = molecular target: T2, purified interference factor(s) from serum of Donor C; test: Biacore, immobilized interference factor
T2 construct: text names Donors 8, 19 and 30

[3] = molecular target: T3, purified interference factor(s) from serum of Donor B; test: Biacore, immobilized interference factor
T3 construct: text names Donors 8, 19 and 30

[4] = molecular target: T4, monoclonal antibody 21-4-3; test: Biacore, captured 21-4-3
T4 construct: mouse IgG1 heavy chain, kappa light chain; also called mAb21-4-3; produced by hybridoma ABH0015 (LMBP-9680-CB)
Protocol: Binding measurements were performed using a Biacore T100 using a CM5 T120416 sensor chip, with running buffer HBS-EP+, 25° C. […] The anti-mouse IgG used was a polyclonal rabbit anti-mouse IgG antibodies reacting with all IgG subclasses, IgA and IgM (GE Healthcare; Cat#BR-1008-38; Lot#10056316). Immobilisation of the anti-mouse IgG was performed using manual amine coupling using a 7 minute injection of EDC/NHS for activation and a 7 minute injection of 1M ethanolamine HCl pH 8.5 for deactivation (Biacore, amine coupling kit).

cMet/Fc = molecular target: T5, cMet/Fc (UniProt P08581 25-932); test: HGF-competition Alphascreen, monovalent form
T5 construct: not shown: Fc part not specified
T5 sequence (P08581 25-932): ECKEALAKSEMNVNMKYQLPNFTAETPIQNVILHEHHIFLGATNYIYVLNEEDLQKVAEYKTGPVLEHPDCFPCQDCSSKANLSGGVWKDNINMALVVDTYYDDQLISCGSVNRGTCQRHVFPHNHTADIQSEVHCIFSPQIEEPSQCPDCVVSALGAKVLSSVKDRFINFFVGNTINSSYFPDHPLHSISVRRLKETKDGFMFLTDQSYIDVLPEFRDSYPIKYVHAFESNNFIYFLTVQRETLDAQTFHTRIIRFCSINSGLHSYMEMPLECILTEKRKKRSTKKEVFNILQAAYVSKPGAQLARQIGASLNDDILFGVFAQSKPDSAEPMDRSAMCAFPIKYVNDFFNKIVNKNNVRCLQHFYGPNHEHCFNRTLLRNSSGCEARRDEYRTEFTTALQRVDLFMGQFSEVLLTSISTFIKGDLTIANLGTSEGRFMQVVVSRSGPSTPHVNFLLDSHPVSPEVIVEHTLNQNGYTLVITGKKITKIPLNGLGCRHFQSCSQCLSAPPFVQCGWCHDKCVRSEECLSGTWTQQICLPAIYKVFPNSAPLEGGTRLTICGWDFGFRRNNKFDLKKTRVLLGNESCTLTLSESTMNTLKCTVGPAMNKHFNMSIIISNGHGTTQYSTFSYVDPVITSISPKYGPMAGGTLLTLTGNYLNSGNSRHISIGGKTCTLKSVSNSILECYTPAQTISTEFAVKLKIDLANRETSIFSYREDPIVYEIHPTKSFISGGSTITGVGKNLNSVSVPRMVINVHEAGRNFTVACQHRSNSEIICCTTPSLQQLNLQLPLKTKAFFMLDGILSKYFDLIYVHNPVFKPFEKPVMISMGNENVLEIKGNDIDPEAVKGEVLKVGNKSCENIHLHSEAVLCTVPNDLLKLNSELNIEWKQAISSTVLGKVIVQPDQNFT

| Binder | binding vs Reference Sequence (=100%) [1] [%] | binding vs Reference Sequence (=100%) [2] [%] | binding vs Reference Sequence (=100%) [3] [%] | binding vs Reference Sequence (=100%) [4] [%] | IC50 (cMet/Fc) [nM] |
| --- | --- | --- | --- | --- | --- |
| SEQ ID NO 85 (VHH, L11S, T110Q, S112G, S113G) VHH: EVQLVESGGGSVQPGGSLRLSCAASRSIGRLDRMGWYRHRPGEPRELVATITGGSSINYGDSVKGRFTISIDNSKNTVYLQMNSLRPEDTAVYYCNFNKYVTSRDTWGQGTLVQVGG | 46 | 42 | 5 | 32 | – |
| SEQ ID NO 74 (VHH, C-terminal: G) VHH: EVQLVESGGGLVQPGGSLRLSCAASRSIGRLDRMGWYRHRPGEPRELVATITGGSSINYGDSVKGRFTISIDNSKNTVYLQMNSLRPEDTAVYYCNFNKYVTSRDTWGQGTLVTVSS | 4 | 33 | 41 | 1 | – |
| SEQ ID NO 75 (VHH, C-terminal: AA) VHH: EVQLVESGGGLVQPGGSLRLSCAASRSIGRLDRMGWYRHRPGEPRELVATITGGSSINYGDSVKGRFTISIDNSKNTVYLQMNSLRPEDTAVYYCNFNKYVTSRDTWGQGTLVTVSS | 1 | 16 | 11 | 1 | – |
| SEQ ID NO 79 (VHH, C-terminal: GG) VHH: EVQLVESGGGLVQPGGSLRLSCAASRSIGRLDRMGWYRHRPGEPRELVATITGGSSINYGDSVKGRFTISIDNSKNTVYLQMNSLRPEDTAVYYCNFNKYVTSRDTWGQGTLVTVSS | 1 | 13 | 17 | 2 | – |
| SEQ ID NO 76 (VHH, C-terminal: GGG) VHH: EVQLVESGGGLVQPGGSLRLSCAASRSIGRLDRMGWYRHRPGEPRELVATITGGSSINYGDSVKGRFTISIDNSKNTVYLQMNSLRPEDTAVYYCNFNKYVTSRDTWGQGTLVTVSS | 2 | 20 | 17 | 2 | – |
| SEQ ID NO 86 (VHH, L11S, T110Q) VHH: EVQLVESGGGSVQPGGSLRLSCAASRSIGRLDRMGWYRHRPGEPRELVATITGGSSINYGDSVKGRFTISIDNSKNTVYLQMNSLRPEDTAVYYCNFNKYVTSRDTWGQGTLVQVSS | 76 | 86 | 6 | 64 | – |
| SEQ ID NO 73 (VHH, C-terminal: G; S112G, S113G) VHH: EVQLVESGGGLVQPGGSLRLSCAASRSIGRLDRMGWYRHRPGEPRELVATITGGSSINYGDSVKGRFTISIDNSKNTVYLQMNSLRPEDTAVYYCNFNKYVTSRDTWGQGTLVTVGG | 6 | 9 | 8 | 1 | – |
| SEQ ID NO 88 (VHH, C-terminal: A; L11S, T110Q) VHH: EVQLVESGGGSVQPGGSLRLSCAASRSIGRLDRMGWYRHRPGEPRELVATITGGSSINYGDSVKGRFTISIDNSKNTVYLQMNSLRPEDTAVYYCNFNKYVTSRDTWGQGTLVQVSS | 1 | 11 | 5 | 1 | – |
| SEQ ID NO 87 (VHH, L11S, S112G, S113G) VHH: EVQLVESGGGSVQPGGSLRLSCAASRSIGRLDRMGWYRHRPGEPRELVATITGGSSINYGDSVKGRFTISIDNSKNTVYLQMNSLRPEDTAVYYCNFNKYVTSRDTWGQGTLVTVGG | 51 | 39 | 5 | 41 | – |
| SEQ ID NO 77 (VHH, C-terminal: A) VHH: EVQLVESGGGLVQPGGSLRLSCAASRSIGRLDRMGWYRHRPGEPRELVATITGGSSINYGDSVKGRFTISIDNSKNTVYLQMNSLRPEDTAVYYCNFNKYVTSRDTWGQGTLVTVSS | 2 | 13 | 12 | 1 | – |
| SEQ ID NO 89 (VHH, L11S, P14A, T110Q, S112G, S113G) VHH: EVQLVESGGGSVQAGGSLRLSCAASRSIGRLDRMGWYRHRPGEPRELVATITGGSSINYGDSVKGRFTISIDNSKNTVYLQMNSLRPEDTAVYYCNFNKYVTSRDTWGQGTLVQVGG | 14 | 17 | 5 | 2 | – |
| A007901255, monovalent form (VHH, anti-c-MET Nanobody) VHH: DVQLVESGGGLVQPGGSLRLSCAASGFTFDDYAIGWFRQAPGEEREGVSSISSTYGLTYYADSVKGRFTISSDNSKNTVYLQMNSLRPEDTAVYYCAATPIGLIGLDAYEYDYWGQGTLVTVSS | – | – | – | – | 0.091 |
| A007901259, monovalent form (VHH, anti-c-MET Nanobody) VHH: DVQLVESGGGLVQPGGSLRLSCAASGFTFDDYAIGWFRQAPGEERLGVSSISSTYGLTYYADSVKGRFTISSDNSKNTVYLQMNSLRPEDTAVYYCAATPIGLIGLDAYEYDYWGQGTLVTVSS | – | – | – | – | 0.043 |
| A007901260, monovalent form (VHH, anti-c-MET Nanobody) VHH: DVQLVESGGGLVQPGGSLRLSCAASGFAFDDYAIGWFRQAPGEERLGVSSISSTYGLTYYADSVKGRFTISSDNSKNTVYLQMNSLRPEDTAVYYCAATPIGLIGLDAYEYDYWGQGTLVTVSS | – | – | – | – | 0.035 |
| A007901256, monovalent form (VHH, anti-c-MET Nanobody) VHH: DVQLVESGGGLVQPGGSLRLSCAASGFAFDDYAIGWFRQAPGEEREGVSSISSTYGLTYYADSVKGRFTISSDNSKNTVYLQMNSLRPEDTAVYYCAATPIGLIGLDAYEYDYWGQGTLVTVSS | – | – | – | – | 0.048 |
